Six substances from patent US20180118846A1 can be followed below.

Targets include CEACAM5 (human) (UniProt P06731); CEACAM6 (human) (UniProt P40199); CD19 (human) (UniProt P15391); CD20 (human) (UniProt P11836); CD22 (human) (UniProt P20273); HLA-DR (human).
What all share (assay): cell-based or functional assay

CD20 (human), sequence (P11836 whole entry): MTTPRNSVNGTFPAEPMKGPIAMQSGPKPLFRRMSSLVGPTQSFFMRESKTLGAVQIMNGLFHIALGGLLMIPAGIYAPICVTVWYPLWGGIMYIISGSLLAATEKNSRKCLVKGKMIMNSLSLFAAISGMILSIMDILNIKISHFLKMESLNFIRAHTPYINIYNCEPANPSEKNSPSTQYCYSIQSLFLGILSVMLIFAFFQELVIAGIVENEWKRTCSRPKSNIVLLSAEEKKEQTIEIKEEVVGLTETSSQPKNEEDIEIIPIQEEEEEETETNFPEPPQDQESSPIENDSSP
CD19 (human), sequence (P15391 20-556): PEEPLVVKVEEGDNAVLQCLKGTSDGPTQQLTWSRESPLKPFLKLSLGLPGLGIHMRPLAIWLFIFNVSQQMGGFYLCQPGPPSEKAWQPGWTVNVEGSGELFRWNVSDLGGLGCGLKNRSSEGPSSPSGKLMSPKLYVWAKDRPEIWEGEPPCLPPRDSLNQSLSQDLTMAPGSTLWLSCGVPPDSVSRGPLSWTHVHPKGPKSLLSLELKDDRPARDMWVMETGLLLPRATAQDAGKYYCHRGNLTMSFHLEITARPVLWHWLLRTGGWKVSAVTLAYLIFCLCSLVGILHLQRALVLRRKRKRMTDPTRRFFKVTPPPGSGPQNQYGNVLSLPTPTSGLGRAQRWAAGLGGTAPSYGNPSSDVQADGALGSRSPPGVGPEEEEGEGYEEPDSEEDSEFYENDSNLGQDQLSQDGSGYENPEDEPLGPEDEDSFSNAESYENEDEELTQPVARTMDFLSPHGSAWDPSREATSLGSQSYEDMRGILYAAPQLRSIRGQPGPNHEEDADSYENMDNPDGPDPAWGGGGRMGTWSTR
CEACAM6 (human), sequence (P40199 35-320): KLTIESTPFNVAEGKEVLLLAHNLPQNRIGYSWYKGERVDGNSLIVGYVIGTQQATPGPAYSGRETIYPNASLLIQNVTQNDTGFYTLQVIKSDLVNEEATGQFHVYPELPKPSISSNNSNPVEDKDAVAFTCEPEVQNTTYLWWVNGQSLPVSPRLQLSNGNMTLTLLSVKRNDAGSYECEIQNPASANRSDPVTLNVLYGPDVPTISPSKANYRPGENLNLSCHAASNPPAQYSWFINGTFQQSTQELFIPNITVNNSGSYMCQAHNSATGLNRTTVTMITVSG
CEACAM5 (human), sequence (P06731 35-702): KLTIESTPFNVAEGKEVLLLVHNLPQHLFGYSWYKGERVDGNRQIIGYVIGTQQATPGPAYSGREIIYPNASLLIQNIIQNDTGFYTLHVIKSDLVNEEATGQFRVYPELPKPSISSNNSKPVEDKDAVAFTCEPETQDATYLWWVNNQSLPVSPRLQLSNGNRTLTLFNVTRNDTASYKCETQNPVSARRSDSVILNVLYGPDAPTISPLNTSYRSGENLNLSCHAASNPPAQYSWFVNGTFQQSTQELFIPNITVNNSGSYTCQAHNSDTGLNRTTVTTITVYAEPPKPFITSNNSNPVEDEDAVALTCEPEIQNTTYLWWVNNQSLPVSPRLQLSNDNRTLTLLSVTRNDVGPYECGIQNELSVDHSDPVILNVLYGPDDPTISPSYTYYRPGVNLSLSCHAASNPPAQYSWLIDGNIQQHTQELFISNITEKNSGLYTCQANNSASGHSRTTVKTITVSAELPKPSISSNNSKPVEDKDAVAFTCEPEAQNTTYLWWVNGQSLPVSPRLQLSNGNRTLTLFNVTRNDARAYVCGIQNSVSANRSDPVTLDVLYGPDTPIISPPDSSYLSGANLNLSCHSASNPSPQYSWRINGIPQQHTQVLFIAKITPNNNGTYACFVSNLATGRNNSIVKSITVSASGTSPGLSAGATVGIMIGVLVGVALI

In the assay with CEACAM5 (human), “(14)-3s, anti-CEACAM5 x anti-CD3 DNL complex (two CH1-DDD2-Fab-hMN-14 + one scFv-AD2-Okt3) (bispecific antibody)” came in with a T-cell mediated lysis of LS-174T, IC50 of 2 pM.

In the assay with CEACAM6 (human), “(15)-3s, anti-CEACAM6 x anti-CD3 DNL complex (two CH1-DDD2-Fab-hMN-15 + one scFv-AD2-Okt3) (bispecific antibody)” gave a T-cell mediated lysis of NCI-N87, IC50 of 3 pM.

For the substance “(19)-3s, anti-CD19 x anti-CD3 DNL complex (two CH1-DDD2-Fab-hA19 + one scFv-AD2-Okt3) (bispecific antibody)”, in the assay with CD19 (human), the % of cell population in T cell-B cell association (CD3+CD20+) at 0.1 µg/mL (19)-3s was > 25%; the T-cell mediated killing of Daudi, LysisMax came to 60%; the T-cell mediated killing of Nalm6, LysisMax is 93%; the T-cell mediated killing of Namalwa, LysisMax was 60%. In the assay with CD19 (human), this substance returned a T-cell mediated killing of Raji, IC50 of 3 nM; a T-cell mediated killing of Raji, LysisMax of 41%; a T-cell mediated killing of Ramos, IC50 of 0.17 pM; a T-cell mediated killing of Ramos, LysisMax of 79%. Also, in the assay with CD19 (human), the association of Daudi cells with T cells after (19)-3s was > 90%; the co-binding of Daudi and T cells, % CD20+/CD7+ flow events after (19)-3s is 45.5%; the concentration at saturation of (19)-3s-mediated cell-to-cell association (Jurkat/Daudi) was in the range of 0.037 to 0.111 µg/mL; the ex vivo re-directed T-cell killing of Daudi, IC50 stood at 1 pM. In addition, in the assay with CD19 (human), the ex vivo re-directed T-cell killing of Jeko-1, IC50 is 3000 pM; the ex vivo re-directed T-cell killing of Nalm-6, IC50 was found to be 6 pM; the ex vivo re-directed T-cell killing of Namalwa, IC50 was determined as 63 pM; the ex vivo re-directed T-cell killing of Raji, IC50 was > 3000 pM. Also, the ex vivo re-directed T-cell killing of Ramos, IC50 with CD19 (human) turned out to be 2 pM.

As for “(20)-3s, anti-CD20 x anti-CD3 DNL complex (two CH1-DDD2-Fab-hA20 + one scFv-AD2-Okt3) (bispecific antibody)”, in the assay with CD20 (human), the T-cell mediated killing of Daudi, IC50 was < 0.3 pM; the T-cell mediated killing of Daudi, LysisMax turned out to be 90%; the T-cell mediated killing of Jeko, LysisMax is 90%; the T-cell mediated killing of Namalwa, LysisMax was 53%. Moreover, in the assay with CD20 (human), the ex vivo re-directed T-cell killing of Daudi, IC50 was found to be 0.3 pM; the ex vivo re-directed T-cell killing of Jeko-1, IC50 is 1 pM; the ex vivo re-directed T-cell killing of Namalwa, IC50 was determined as 30 pM; the ex vivo re-directed T-cell killing of Ramos, IC50 stood at 0.4 pM.

For the substance “(22)-3s, anti-CD22 x anti-CD3 DNL complex (two CH1-DDD2-Fab-hLL2 + one scFv-AD2-Okt3) (bispecific antibody)”, in the assay with CD22 (human), the T-cell mediated lysis of Daudi, IC50 came out at 5 pM; the T-cell mediated lysis of Daudi, LysisMax is 60%; the ex vivo re-directed T-cell killing of Daudi, IC50 amounted to 6 pM; the ex vivo re-directed T-cell killing of Namalwa, IC50 was > 3000 pM.

In the assay with HLA-DR (human), “(C2)-3s, anti-HLA-DR x anti-CD3 DNL complex (two CH1-DDD2-Fab-hL243 + one scFv-AD2-Okt3) (bispecific antibody)” came in with a T-cell mediated killing of Jeko-1, LysisMax of 88%; an ex vivo re-directed T-cell killing of Jeko-1, IC50 of 20 pM; an ex vivo re-directed T-cell killing of Ramos, IC50 of 2 pM.
